IntAct's records for PubMed 30567737

B1: 17S U2 SnRNP complex component HTATSF1 (Homo sapiens), O43719 (parent)
chain: MSGTNLDGNDEFDEQLRMQELYGDGKDGDTQTDAGGEPDSLGQQPTDTPYEWDLDKKAWFPKITEDFIATYQANYGFSNDGASSSTANVEDVHARTAEEPPQEKAPEPTDARKKGEKRKAESGWFHVEEDRNTNVYVSGLPPDITVDEFIQLMSKFGIIMRDPQTEEFKVKLYKDNQGNLKGDGLCCYLKRESVELALKLLDEDEIRGYKLHVEVAKFQLKGEYDASKKKKKCKDYKKKLSMQQKQLDWRPERRAGPSRMRHERVVIIKNMFHPMDFEDDPLVLNEIREDLRVECSKFGQIRKLLLFDRHPDGVASVSFRDPEEADYCIQTLDGRWFGGRQITAQAWDGTTDYQVEETSREREERLRGWEAFLNAPEANRGLRRSDSVSASERAGPSRARHFSEHPSTSKMNAQETATGMAFEEPIDEKKFEKTEDGGEFEEGASENNAKESSPEKEAEEGCPEKESEEGCPKRGFEGSCSQKESEEGNPVRGSEEDSPKKESKKKTLKNDCEENGLAKESEDDLNKESEEEVGPTKESEEDDSEKESDEDCSEKQSEDGSEREFEENGLEKDLDEEGSEKELHENVLDKELEENDSENSEFEDDGSEKVLDEEGSEREFDEDSDEKEEEEDTYEKVFDDESDEKEDEEYADEKGLEAADKKAEEGDADEKLFEESDDKEDEDADGKEVEDADEKLFEDDDSNEKLFDEEEDSSEKLFDDSDERGTLGGFGSVEEGPLSTGSSFILSSDDDDDDI

Variants of: B1
Conditions: with SF3B1, O75533-1
Chain of SF3B1, O75533-1 (O75533 whole entry): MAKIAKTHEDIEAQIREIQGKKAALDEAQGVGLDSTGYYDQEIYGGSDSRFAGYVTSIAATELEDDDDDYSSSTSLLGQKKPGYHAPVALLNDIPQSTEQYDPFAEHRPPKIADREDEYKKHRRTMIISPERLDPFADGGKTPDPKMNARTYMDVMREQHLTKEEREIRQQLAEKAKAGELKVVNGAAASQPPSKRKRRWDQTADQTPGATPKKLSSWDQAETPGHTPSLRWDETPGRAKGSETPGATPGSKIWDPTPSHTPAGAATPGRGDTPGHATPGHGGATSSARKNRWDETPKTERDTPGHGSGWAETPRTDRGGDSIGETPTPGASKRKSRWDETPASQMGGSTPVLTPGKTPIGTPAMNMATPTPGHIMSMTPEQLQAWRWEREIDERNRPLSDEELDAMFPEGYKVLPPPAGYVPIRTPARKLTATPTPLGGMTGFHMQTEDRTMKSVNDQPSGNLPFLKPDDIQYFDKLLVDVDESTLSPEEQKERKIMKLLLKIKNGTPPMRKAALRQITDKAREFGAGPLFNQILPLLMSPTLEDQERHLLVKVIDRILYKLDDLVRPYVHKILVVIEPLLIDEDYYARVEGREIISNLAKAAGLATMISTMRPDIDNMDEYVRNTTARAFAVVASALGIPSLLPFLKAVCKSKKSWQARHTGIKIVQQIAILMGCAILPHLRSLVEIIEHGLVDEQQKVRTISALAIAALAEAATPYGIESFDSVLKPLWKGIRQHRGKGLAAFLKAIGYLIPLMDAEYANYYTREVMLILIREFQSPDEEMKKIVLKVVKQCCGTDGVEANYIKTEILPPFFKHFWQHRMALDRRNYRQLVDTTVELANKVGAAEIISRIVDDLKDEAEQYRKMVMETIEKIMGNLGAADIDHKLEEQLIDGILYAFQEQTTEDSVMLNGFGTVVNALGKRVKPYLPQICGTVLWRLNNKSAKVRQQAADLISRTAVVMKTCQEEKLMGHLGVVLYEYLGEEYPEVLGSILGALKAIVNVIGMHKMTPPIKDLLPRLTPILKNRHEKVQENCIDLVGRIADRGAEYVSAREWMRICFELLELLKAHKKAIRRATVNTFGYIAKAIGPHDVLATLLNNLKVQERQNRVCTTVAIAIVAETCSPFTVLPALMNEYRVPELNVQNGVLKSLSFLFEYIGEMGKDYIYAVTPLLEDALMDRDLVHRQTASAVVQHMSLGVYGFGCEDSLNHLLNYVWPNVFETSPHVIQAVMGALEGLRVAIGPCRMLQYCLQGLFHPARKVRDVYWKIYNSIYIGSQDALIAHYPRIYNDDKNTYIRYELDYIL

| Variant | effect of a mutation on the interaction |
| --- | --- |
| E286K;D290K | disrupting interaction strength |
| E286K;F337A | disrupting interaction strength |
